Sequences and labels used below:
B1: murine GATA2 finger region containing the NF and CF domains (289 aa to 480 aa), wild type, MBP-fused or GST-fused (domain or fragment)
chain: not shown
notes: GATA2, murine, finger region containing the NF and CF domains, residues 289-480; Two differently tagged copies of the same stretch were used; Each copy carries ONE carrier: MBP-fused (bait on amylose beads) or GST-fused (prey in a1, bait on glutathione beads in a2); They are kept as one molecule because the protein is tested against itself; also called G2^WT; MBP-fused G2^WT

Series [1] deals with the molecule itself. Put plainly: pull-down; recombinant MBP-fused bait mixed with GST-fused prey in binding buffer at room temperature; complexes purified with amylose magnetic beads; immunoblot with anti-GST and anti-MBP. In general terms: In western blotting, separated proteins are transferred to a membrane and probed.
Series [2] concerns the target B1. Described as above. Conditions: both partners purified.

Consider B1, for which, in series [1], the binding result is listed as “binds”.

B2: murine GATA2 finger region (289 aa to 480 aa) with R398W, GST-fused or MBP-fused (domain or fragment)
chain: not shown
notes: GATA2, murine, finger region containing the NF and CF domains, residues 289-480, with the patient mutation R398W; Each copy carries ONE carrier: GST-fused in a1 (prey), MBP-fused in a2 (prey); The mutation corresponds to a human germline GATA2 mutation found in patients; also called G2^R398W; GST-fused G2^R398W
As for B2, the binding result in series [2] is “binds”.

B3: murine GATA2 finger region (289 aa to 480 aa) with T354M, GST-fused or MBP-fused (domain or fragment)
chain: not shown
notes: GATA2, murine, finger region containing the NF and CF domains, residues 289-480, with the patient mutation T354M; Each copy carries ONE carrier: GST-fused in a1 (prey), MBP-fused in a2 (prey); The mutation is a germline GATA2 mutation found in patients; also called G2^T354M; GST-fused G2^T354M
B3: in series [2], the binding result is recorded as “binds”.

Source of the values: paper PMC9018821, “Heterozygous variants in GATA2 contribute to DCML deficiency in mice by disrupting tandem protein binding” (Communications Biology, 2022).
